From publication PMC9676460, “Dynamic acylome reveals metabolite driven modifications in Syntrophomonas wolfei” (Frontiers in Microbiology, 2022)
Values joined by “and” are separate entries in the source; they are usually repeats but may differ in a detail not shown here. Equal entries are not always repeated.

Target: the molecule itself
Assay: crystal structure; Act2 alone; hanging drop, 0.1 M sodium formate pH 7.0, 12% PEG 3,350, room temperature; space group P 41 21 2; two molecules in the asymmetric unit; tetramer from crystal packing

B1: Syntrophomonas wolfei Göttingen Act2 (Swol_0675), acetyl-CoA acetyltransferase (enzyme)
chain: MAEINEVVVVGMARTPIGRYLGGLASVRANDLAIIAANAAIERAGVDPGIIDEIVGATCLHAGNGSLPPRIIGMKVGLPVRSGSCMVSQNCASGMRATEIACQNIMLGKTDISLVTAVESMSNIPYLLQQARSGYRMGDGKVQDAMLSDGLVCQLAGGHMGMTAENIAEKYGITREECDALALTSHQNAVKAVDEGIFDREIVPVVIKSKKGDKVISKDEHPIRGASLETMAKLPPAFKKGGVVTAANASGINDCAAAAVFMSKKKCEELGLKPLMKLVGICSEGVDAKVMGLGPAVAMPKVLKQAGWKYEDVDYWEVNEAFAAQVLGVVRMLKEEAGIELDFSKTNHNGSGIGLGHPVGATGLRIIVSMYYELERLGLTKGGASLCVGGGSAMASLWTRDI
notes: Act2, acetyl-CoA acetyltransferase encoded by the gene Swol_0675 of Syntrophomonas wolfei subsp. wolfei strain Göttingen; synthesized gene cloned into pMAPLe4; The asymmetric unit holds a homodimer; also called acetyl-CoA transferase; acyl-CoA transferase paralog; source: E. coli BL21-Gold (DE3), purified (NiNTA, TEV cleavage, Superdex 200 SEC); not shown: His6, N-terminal, cleaved
stoichiometry N: 2 and 4
